{"source": "paper PMC4822050", "binders": {"B1": {"name": "FAM-12bp-HM-DNA (dsDNA)", "DNA 1": "CCATGCGCTGAC", "DNA 2": "GTCAGCGCATGG", "modifications": "5-methyl-dC at position 6 of strand 2 (GTCAGXGCATGG)"}}, "key": {"SRA-Spacer [1]": {"molecular_target": "T1, SRA-Spacer (human, UniProt Q96T88 414-674)", "T1 sequence": "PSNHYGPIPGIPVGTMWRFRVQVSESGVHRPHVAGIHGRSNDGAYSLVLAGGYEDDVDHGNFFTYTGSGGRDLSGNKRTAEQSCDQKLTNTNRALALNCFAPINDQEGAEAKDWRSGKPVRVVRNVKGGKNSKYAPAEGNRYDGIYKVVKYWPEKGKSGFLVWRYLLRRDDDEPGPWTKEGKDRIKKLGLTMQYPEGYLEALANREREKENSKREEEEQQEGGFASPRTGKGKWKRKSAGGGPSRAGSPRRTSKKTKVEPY", "test": "FP; DNA length series; ITC: 10 mM HEPES pH 8.0, 100 mM NaCl, 18 C; EMSA: 20 mM HEPES pH 7.5, 100 mM NaCl, 8% glycerol, 1 mM DTT, on ice; pull-down: 20 mM HEPES-NaOH pH 8.0, 100 mM NaC"}, "SRA": {"molecular_target": "T2, SRA (human, UniProt Q96T88 414-617)", "T2 sequence": "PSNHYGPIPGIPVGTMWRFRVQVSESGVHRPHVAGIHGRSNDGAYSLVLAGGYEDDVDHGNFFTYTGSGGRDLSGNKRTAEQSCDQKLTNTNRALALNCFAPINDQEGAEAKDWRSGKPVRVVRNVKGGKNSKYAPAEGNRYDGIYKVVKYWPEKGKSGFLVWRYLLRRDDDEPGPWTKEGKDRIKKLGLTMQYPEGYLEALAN", "test": "FP; 50 mM NaCl; ITC: 10 mM HEPES pH 8.0, 100 mM NaCl, 18 C; EMSA: 20 mM HEPES pH 7.5, 100 mM NaCl, 8% glycerol, 1 mM DTT, on ice; pull-down: 20 mM HEPES-NaOH pH 8.0, 100 mM NaC"}, "SRA-Spacer [2]": {"molecular_target": "T1, SRA-Spacer", "test": "FP; 50 mM NaCl; ITC: 10 mM HEPES pH 8.0, 100 mM NaCl, 18 C; EMSA: 20 mM HEPES pH 7.5, 100 mM NaCl, 8% glycerol, 1 mM DTT, on ice; pull-down: 20 mM HEPES-NaOH pH 8.0, 100 mM NaC"}, "SRA-Spacer-642": {"molecular_target": "T3, SRA-Spacer-642 (human, UniProt Q96T88 414-642)", "T3 sequence": "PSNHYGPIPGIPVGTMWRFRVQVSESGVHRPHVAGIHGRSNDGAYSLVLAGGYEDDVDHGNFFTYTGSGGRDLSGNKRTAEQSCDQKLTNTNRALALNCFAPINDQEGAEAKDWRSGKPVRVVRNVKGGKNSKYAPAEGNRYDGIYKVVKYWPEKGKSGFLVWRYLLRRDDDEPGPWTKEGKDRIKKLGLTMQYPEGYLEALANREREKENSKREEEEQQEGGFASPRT", "test": "FP; ITC: 10 mM HEPES pH 8.0, 100 mM NaCl, 18 C; EMSA: 20 mM HEPES pH 7.5, 100 mM NaCl, 8% glycerol, 1 mM DTT, on ice; pull-down: 20 mM HEPES-NaOH pH 8.0, 100 mM NaC"}, "UHRF1 deltaSRA": {"molecular_target": "T4, UHRF1 deltaSRA (human, UniProt Q96T88 1-793, del414-617)", "T4 sequence": "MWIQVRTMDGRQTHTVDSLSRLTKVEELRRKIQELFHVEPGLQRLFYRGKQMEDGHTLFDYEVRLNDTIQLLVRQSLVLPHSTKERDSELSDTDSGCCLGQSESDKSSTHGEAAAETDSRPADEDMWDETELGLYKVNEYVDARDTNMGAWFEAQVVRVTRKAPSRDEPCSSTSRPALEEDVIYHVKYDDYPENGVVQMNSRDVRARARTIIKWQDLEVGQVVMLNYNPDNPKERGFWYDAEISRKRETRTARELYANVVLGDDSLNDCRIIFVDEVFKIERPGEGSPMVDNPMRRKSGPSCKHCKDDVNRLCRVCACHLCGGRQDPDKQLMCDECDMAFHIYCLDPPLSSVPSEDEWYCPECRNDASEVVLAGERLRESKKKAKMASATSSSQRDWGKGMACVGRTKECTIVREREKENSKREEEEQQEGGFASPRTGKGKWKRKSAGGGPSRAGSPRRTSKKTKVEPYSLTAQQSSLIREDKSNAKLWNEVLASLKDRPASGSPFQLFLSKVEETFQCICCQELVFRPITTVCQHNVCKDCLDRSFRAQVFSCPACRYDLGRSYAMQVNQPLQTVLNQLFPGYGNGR", "test": "FP; not detectable; ITC: 10 mM HEPES pH 8.0, 100 mM NaCl, 18 C; EMSA: 20 mM HEPES pH 7.5, 100 mM NaCl, 8% glycerol, 1 mM DTT, on ice; pull-down: 20 mM HEPES-NaOH pH 8.0, 100 mM NaC"}, "SRA-Spacer [3]": {"molecular_target": "T1, SRA-Spacer", "test": "FP; 150 mM NaCl; ITC: 10 mM HEPES pH 8.0, 100 mM NaCl, 18 C; EMSA: 20 mM HEPES pH 7.5, 100 mM NaCl, 8% glycerol, 1 mM DTT, on ice; pull-down: 20 mM HEPES-NaOH pH 8.0, 100 mM NaC"}}}
{"binder": "B1", "values": [{"measurement": "Kd", "setting": "SRA-Spacer [1]", "result": "340 ± 90", "unit": "nM"}, {"measurement": "Kd", "setting": "SRA", "result": "150 ± 18", "unit": "nM"}, {"measurement": "Kd", "setting": "SRA-Spacer [2]", "result": "24 ± 3.7", "unit": "nM"}, {"measurement": "Kd", "setting": "SRA-Spacer-642", "result": "6110 ± 1150", "unit": "nM"}, {"measurement": "binding result", "setting": "UHRF1 deltaSRA", "result": "no binding"}, {"measurement": "Kd", "setting": "SRA-Spacer [3]", "result": "580 ± 98", "unit": "nM"}]}
